How the values were obtained:
DR4 (R&D Systems) = target: T1, DR4 (R&D Systems) (UniProt O00220 24-239, limits assumed); experiment: ELISA, coated antigen 50 ng/mL
T1 construct: Bought reagent coated at 50 ng/mL; also called TRAIL-R1

DcR2 (R&D Systems) = target: T2, DcR2 (R&D Systems) (UniProt Q9UBN6 56-211, limits assumed); experiment: ELISA, coated antigen 50 ng/mL
T2 construct: Bought reagent coated at 50 ng/mL; also called TRAIL-R4
T2 sequence (looked up): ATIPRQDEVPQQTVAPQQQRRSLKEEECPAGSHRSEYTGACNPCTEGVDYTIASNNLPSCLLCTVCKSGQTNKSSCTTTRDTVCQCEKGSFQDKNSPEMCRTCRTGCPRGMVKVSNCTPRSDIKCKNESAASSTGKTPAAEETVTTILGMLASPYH

DcR1 (R&D Systems) = target: T3, DcR1 (R&D Systems) (UniProt O14798 26-221, limits assumed); experiment: ELISA, coated antigen 50 ng/mL
T3 construct: Bought reagent coated at 50 ng/mL; also called TRAIL-R3
T3 sequence (looked up): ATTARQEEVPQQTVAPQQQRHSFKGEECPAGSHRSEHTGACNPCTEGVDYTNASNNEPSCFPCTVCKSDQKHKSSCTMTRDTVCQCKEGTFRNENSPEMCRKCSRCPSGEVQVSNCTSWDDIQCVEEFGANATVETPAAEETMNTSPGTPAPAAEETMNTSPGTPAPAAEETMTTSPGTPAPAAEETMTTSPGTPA

Fas (R&D Systems) = target: T4, Fas (R&D Systems) (UniProt P25445 26-173, limits assumed); experiment: ELISA, coated antigen 50 ng/mL
T4 construct: Bought reagent coated at 50 ng/mL
T4 sequence (looked up): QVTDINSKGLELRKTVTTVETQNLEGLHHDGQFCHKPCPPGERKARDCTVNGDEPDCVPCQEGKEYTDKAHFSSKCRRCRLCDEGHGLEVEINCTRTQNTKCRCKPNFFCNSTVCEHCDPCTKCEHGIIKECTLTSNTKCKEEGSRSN

FasL (Tebu-bio) = target: T5, FasL (Tebu-bio) (UniProt P48023 134-281, limits assumed); experiment: ELISA, coated antigen 100 ng/mL
T5 construct: Bought reagent coated at 100 ng/mL
T5 sequence (looked up): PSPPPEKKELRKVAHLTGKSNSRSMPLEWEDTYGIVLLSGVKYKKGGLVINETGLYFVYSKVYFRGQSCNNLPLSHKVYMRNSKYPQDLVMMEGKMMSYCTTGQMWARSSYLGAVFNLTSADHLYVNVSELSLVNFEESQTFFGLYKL

[1] = target: T6, recombinant TRAIL (R&D Systems) (UniProt P50591 114-281); experiment: ELISA, coated antigen 100 ng/mL
T6 construct: Bought reagent, used coated in the ELISA and soluble at 100 ng/mL on H4 cells; also called Apo2L; TRAIL ligand

Measured: binding result

B1: mDR5-01 (antibody, V domains shown)
VH: EVQLQQSGAEFVKPGASVKLSCTASGFNIKDTFIHWVKQRPEQGLDWIGRIDPANGNTKYDPKFQGKATETTDTSSNTAYLQLSSLTSEDTAVYYCVRGLYTYYFDYWGQGTSVTVSS
VL: DIVLTQSPATLSVTPGDSVSLSCRASQSISNNLHWYQQKSHESPRLLIKFASQSISGIPSRFSGSGSGADFTLIINSVETEDFGMYFCQQGNSWPYTFGGGTKLEIK
no binding (tested: 1 µg/mL): all assays above

B2: mDR5-05 (antibody, V domains shown)
VH: EVQLQQSGAELVKPGASVKLFCTASGFNIKDTHIHWVKQRPEQGLEWIGRIDPANGNTEYDPKFQGKATIRVDTSSDTAYLQLSSLTSEDTAVHYCARWGTNVYFAYWGQGTSVTVSS
VL: DIQLTQSPAIMSASPGEKVTISCSASSSVSYMYWYQQKPGSSPKPWIYRTSNLASGVPGRFSGSGSGTSYSLTISSMEAEDAATYYCQQYHSYPPTFGGGTKLEIK
notes: mouse IgG1 is implied
no binding (tested: 1 µg/mL): all assays above

From patent US20150139997A1 (Genmab, published 2015)
